According to the supplement of paper PMC9170038:

System: MS2 coat protein
Test: apparent KD of MS2 coat protein; designed switch direction (-1 OFF switch, 1 ON switch): -1; higher = weaker reporter binding
How it was run: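 Transcription of designed RNA switches on Illumina chips was done by stalled E. coli RNA polymerase. SNAP-549-labelled MS2 coat protein was then titrated in doubling steps from 0.7 or 1.5 nM to 3 µM, with steps of 0.8–1.5 h at the lowest and 10–20 min at the highest concentration. The per-design median over clusters of curve-fitted normalised fluorescence is reported as apparent KD.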

[1] = Eterna round: R95, input ligand: FMN 200 uM
[2] = Eterna round: R95, input ligand: microRNA oligo, concentration not stated
[3] = Eterna round: R95, input ligand: none
[4] = input ligand: microRNA oligo, concentration not stated

Row | Sequence | apparent KD of MS2 coat protein [1] | apparent KD of MS2 coat protein [2] | apparent KD of MS2 coat protein [3] | apparent KD of MS2 coat protein (input ligand: FMN 200 uM) | apparent KD of MS2 coat protein [4] | apparent KD of MS2 coat protein (input ligand: none)
1 | UAAUAAAGUGUGAGGAUAUGCUGGUCCUUAGAUCAGCAGAAGGCACAUGAGGAUCACCCAUGUAAUAUAUAAAU [Mat - Exclusion 4 - JL Mod - D56] (puzzle: Brourd's mod of Exclusion 4) | 245 nM | 22.8 nM | 30.3 nM |  |  | 
2 | UAAUAACAUGUAGGAUAUGCGUGGCGAAGCUAUGCAGAAGGACAUGAGGAUCACCCAUGUUAAAGCGUCUGAGAACAGAUGCGA [Mat - Exclusion NG 1 - Mod of JL - D98] (Eterna round: R96, puzzle: Exclusion NG 1) |  |  |  | 165 nM | 24.9 nM | 30.5 nM
3 | UAAUACAAGUAAGGAUUCUACAUGAGGAUCACCCAUGUGCUCGUCUUAUAAAGUACUAUCACGAAAGUGAUAGUACU [Mat - Sensor v3 - turn-off var 1 - Eli Mod - D100] (puzzle: Sensor v3, turn-off variant 1) | 21.8 nM | 199 nM | 22.5 nM |  |  | 
4 | UAAUAUCUGUAGGAUAUCAGUGGAGAACACGUAUGAGAAGGGCAGACAUGAGGAUCACCCAUGUAUAGGGUCCG [BotMod 6 - Jieux - Exclusion 6] (Eterna round: R97, puzzle: Exclusion 6) |  |  |  | 59.1 nM |  | 20.2 nM
5 | UAAUGCAAGCAAAGAUCUUACAUGAGGAUCACCCAUGUGCUCGUCUUAUAAAGUACUAUCACGAAAGUGAUAGUACA [Mat - Sensor v3 - turn-off var 1 - Eli Mod - D91] (puzzle: Sensor v3, turn-off variant 1) | 27.6 nM | 109 nM | 26.3 nM |  |  | 
6 | UAAUGCAAGCAAAGAUCUUACAUGAGGAUCACCCAUGUGCUCGUCUUAUAAAGUACUAUCACGAAAGUGAUAGUACU [Mat - Sensor v3 - turn-off var 1 - Eli Mod - D92] (puzzle: Sensor v3, turn-off variant 1) | 31.5 nM | 129 nM | 25.2 nM |  |  | 
7 | UAAUGUGCGAGAGGAUAUCGUGUACAAAGUACACGAGAAGGCUUCACAUGAGGAUCACCCAUGUAUCGAGGUGAAACACCUUGG [Omei Exc(NG)1 Bv2] (Eterna round: R96, puzzle: Exclusion NG 1) |  |  |  | 703 nM | 285 nM | 318 nM
8 | UAAUUAAUAAGAUCAAUUAAUUAACAUGAGGAUCACCCAUGUGAGGAUAUCAGCUCGUGUAGAGCUGAGAAGGCACAAUAAUUA [ExNG3/17-C3] (Eterna round: R96, puzzle: Exclusion NG 3) |  |  |  | 203 nM | 38.8 nM | 51.9 nM
9 | UAAUUAAUUAAUAAAUAAUACAUGAGGAUCACCCAUGUAGAUCCUACAUACAAUUUAAGUAGCUCGUCUUAUUAUUA [Sensor-V1 #61] (Eterna round: R97, puzzle: Sensor, turn-off variant 1) |  |  |  | 200 nM |  | 255 nM
10 | UAAUUUUUAGUAAGGAUAUCGGUCCCAAGGGACAACGAGAAGGUACAUGAGGAUCACCCAUGUGAAAUAAGAAU [Mod of Zala 4 - Jieux - Brourd's Mod of Exclusion 4] (Eterna round: R97, puzzle: Brourd's mod of Exclusion 4) |  |  |  | 27.9 nM |  | 17.3 nM
11 | UACACUGCAUGAGGAUCAAACAUGAGGAUCACCCAUGUAUAACAAGCUUUUUGCACGUCUUAUAAUUAUGUAGUGUA [Electric Eye 14 - Jieux - Sensor, turn-off variant 1] (Eterna round: R97, puzzle: Sensor, turn-off variant 1) |  |  |  | 15.3 nM |  | 16.2 nM
12 | UACAUGAGGAUCACCCAUGUUUUGUCGUGUAUGGUAAUAAUCUAGGAUAUCAAUUUAUUUAUUUAUGAGAAGGAGAAUAAUAAA [JMF's solution 4] (Eterna round: R96, puzzle: Exclusion NG 3) |  |  |  | 67.1 nM | 55.9 nM | 61.7 nM
13 | UACAUGAGGAUCACCCAUGUUUUGUCGUGUAUGGUAUUUAUCUAGGAUAUCAAUUGAUUAAUUUAUGAGAAGGAGAAUAUUAAU [JMF's solution 60] (Eterna round: R96, puzzle: Exclusion NG 3) |  |  |  | 39.9 nM | 39.1 nM | 34.4 nM
14 | UACAUGAGGAUCACCCAUGUUUUGUCGUGUAUGGUAUUUAUCUAGGAUAUCAAUUGGUUUAUUUAUGAGAAGGAGAAUAUUAAU [JMF's solution 57] (Eterna round: R96, puzzle: Exclusion NG 3) |  |  |  | 36.1 nM | 31.6 nM | 33.3 nM
